Laboratory results as given in PMC7068118 (Human Molecular Genetics, 2020).

Columns and labels:
Experiment in all cases: co-IP
[1] = molecular target: Vps13^N1 (Vps13^GFP, conserved asparagine of VAB repeat 1 to alanine) (S. cerevisiae) (UniProt Q07878)
[2] = molecular target: Vps13^N2,3,4S (Vps13^GFP, conserved asparagines of VAB repeats 2, 3 and 4 to serine) (S. cerevisiae) (UniProt Q07878)
[3] = molecular target: Vps13^N3 (Vps13^GFP, conserved asparagine of VAB repeat 3 to alanine) (S. cerevisiae) (UniProt Q07878)
[4] = molecular target: Vps13^N4 (Vps13^GFP, conserved asparagine of VAB repeat 4 to alanine) (S. cerevisiae, UniProt Q07878 1-3144, Vps13^N4A (N2216))
[5] = molecular target: Vps13^N4S (Vps13^GFP N2216S, models VPS13B N2993S) (S. cerevisiae, UniProt Q07878 1-3144, Vps13^N4S (N2216))

Binder	pull-down relative to WT [1]	recovery relative to WT [2]	recovery relative to WT [1]	recovery relative to WT [3]	recovery relative to WT [4]	pull-down relative to WT [5]
Spo71-3HA (natural protein) MDSIVNVVEDDVKYAQRVTSFSSPQNANVKVFTIPRHSFTAFRLSYVSPTELSACSQVTLLGGIPKQWYADQNNQVWKLLTKISLRKVRKQSDMLRRYGYGTIYKKRVGKIPTALYLRKHFTWSYEDNTSIHNGHRLKEAEMEMKRTRSSPVQKSEYKLSLPRRCRSSSDQNFMRQELLKEKKSELSRNNSLPLIDTAQAVDIHPVLHEEDQENTNKRNKSLLSNLKRKDLGESKSISRKDYSHFDRIPSPSSARSVGETDFNYNREPSEDTLRYPDSIIEVTNRTSPAPNSILSRSGQFVNSNDLSDGFSTSNTINNVGLNANEKIFFNALQSMEKENLMLWKTSQKYGTYLDERRKSADAFQKRERGSCVDIGKLHSSHLPFINILPPWPTELTEEERIIHDRLASKHSHHIRKHVHNARNKTSCKIKDSVGTFLGMTNSLTNKATVKKRTGQILKKEKMLVMVKEAIQNKVPLPNFSENECFDTRVSERWKEYIVIARSTGRFDPPILLQFYRHRHIPEIEDISSIATKYHRNPLDFFLSRNCIVKFYSSLDKTISIQKPDKRLGGFIDESIEKKDELKHYSPIKIFILRCSSIRSSGRWYKFLLESLDRQLFTPAINLKIPLTEISIKINLNEIIFQKLIDLGKQEKDRLKICFLQRGYKIFQHPILRYFTVAILEKLKLAHYDYLIRKWDTENPVLGCALKRYDRLEWIPCDEDSLVTGIFAFCQSHLIQYRPIANRLRETKSLEGKCLKEPTPIEGFLIRLTDKYGSARTNFGKYSISTAYFFTCENLLFSMKAYRANPPLPIDSMIDDTSTEIEKEEIWKQWKKIPEVYEQQPYPLDTNDHIEWMNCQTTQSEYDSRDFYAFHCFHRRIDQILKTDNVIDLTEVKDIYQGTRTDYEADKIKYGVYKEASEIFWHRNYEIDDVSRSVINIETSNGLLLKLLATSATVAEEWVIKLKQMISYWKNKQREDTERLLKIRRSNAGLLMLNGEEETKIGENTLRWIVEHGRADEQTFNANGISLSRPLIQKGPLYQKPHKHSVFSKYYVVLISGFIVLFHCFHRSTTGFAKEVLEYAHYVTIPIDDCYLYSGTTTELDLLQRDRTFDEINYGSHALPRVYGDGWRSVEDESSRCFTLWFGTRRALSSNRLQKKGNEKQYTQDYGRQDNNIDPPSAPEADLNNSNVPSNTDKIHFTKKLGVSGKSMVFMARSRQERDLWVMSIYYELERLRRTASTSNSRNQTM	41%	42%				
Mcp1-3HA (natural protein, S. cerevisiae, UniProt Q12106 1-302, looked up) MIKLHEVPPEPVDPASLPHDVNAHSPEGDGNPDKRKKIFGIPYPFSRSSCRRFLWNCQKISVLPMALYFPLHAANTLITPAVSPDSAPDDVLMMVREILPSITTKLLVAGITLHVSAGVLLRIVNNWNKPRRNRHRHLKISAEQDLSQDSIGLTGGISGYLFGLYKTFRIPPQVISGYILVPVLIYHLLIMKWVPNSISTEVDFASIKQLLSSKNRWWKWLGGLVPLAILLESGVYHIGSGLCRYFGVRKMTSRKKWSTAINLLTLVGFVSLIRLMKEDSTKLGPNQFESIFKKIRLLLHVN			24%	67%	42%	77%
Ypt35-3HA (natural protein) MSDKISFLPPEPIQLLDEDSTEPELDIDSQQENEGPISASNSNDSTSHSNDCGATITRTRPRRSSSINANFSFQKAHVSDCTIVNGDHGTKFAVWRITVFLEPNLKAFAAKRESYKIQTYKRYSDFVRLRENLLTRIKTAKPEKLNCLQIPHLPPSVQWYSSWKYQEVNLNKDWLAKRQRGLEYFLNHIILNSSLVEMTKDILIQFLEPSKRVA			24%			
